# Patent publication US20180371033A1, “THERAPEUTIC PEPTIDES AND METHODS OF USE THEREOF” (priority 2015, published 2018)
# Legend:
# [1] = Brain section autoradiography: peptide homing to ventricles and cerebral spinal fluid; type: in vivo, Female Harlan athymic nude mice; details: 14C signal in sagittal/coronal brain sections, 3 hours after administration
# Excerpt: The experiment was done in duplicates.
# [2] = type: in vivo, mice; details: 14C whole body autoradiography
# Excerpt: This example describes biodistribution of peptides.
# ND indicates the peptide was not detected in that tissue.
# [3] = for Blood (densitometric signal in the heart blood) / Brain (percentage of signal in that tissue compared to the signal detected in the heart blood): 14C-radiolabeled peptide, tail vein injection, kidneys ligated, target three hours circulation
# Description: This example illustrates the dosing of peptide. […] The experiment was done in duplicates.
# A target dosage of 20 nmol of each peptide was administered to separate flank sarcoma A204 tumor bearing Female Harlan athymic nude mice while anesthetized. The dosage was adjusted for whole body autoradiography. […] Some animals died after receiving the peptides, possibly due to complications of the anesthesia and surgical procedure used to ligate the kidneys of each mice, or due to toxic effects of some peptides. The circulation time of each peptide varied from animal-to-animal. […] Inulin was used as a negative control, as this polysaccharide is known to not cross the BBB.
# At the end of the dosing period, mice were frozen in a hexane/dry ice bath and then frozen in a block of carboxymethylcellulose. Thin, frozen sections of whole animal sagittal slices that include the brain, tumor, liver, kidney, lung, heart, spleen, pancreas, muscle, adipose, gall bladder, upper gastrointestinal track, lower gastrointestinal track, bone, bone marrow, reproductive track, eye, cartilage, stomach, skin, spinal cord, bladder, salivary gland, and other types of tissues were obtained with a microtome, allowed to dessicate in a freezer, and exposed to phosphoimager plates for about ten days.
# These plates were developed, and the signal (densitometry) from each organ was normalized to the signal found in the heart blood of each animal. A signal in tissue darker than the signal expected from blood in that tissue indicates accumulation in a region, tissue, structure or cell. Fluoxetine can cross the blood brain barrier, and is a positive control. Inulin cannot cross the blood brain barrier, and is a negative control. FIG. 2 illustrates ^14C signal in the brain and other tissues for the fluoxetine (top) and inulin (bottom) control groups.
# Furthermore, the brain contains approximately 3% blood. Thus when comparing the radioactivity signal per area in blood to that in the brain, a signal in the brain that is much higher than 3% of the signal in blood can be attributed to accumulation of the material in the brain through the BBB. A ratio of at least 10% diffuse signal in brain versus blood was chosen as a reference level for high penetration. The densitometric signal can also indicate high concentration within specification locations in the brain, which can indicate crossing the BBB and/or the blood CSF barrier. […] Numbers for blood indicate the densitometric signal in the heart blood. Numbers for the brain indicate the percentage of signal in that tissue compared to the signal detected in the heart blood.
Substance,localization of the peptide to specific structures in the brain [1],Adipose (percentage of signal compared to blood in the heart) [2] [%],Gall bladder (percentage of signal compared to blood in the heart) [2] [%],Liver (percentage of signal compared to heart blood) [2] [%],Lower GI (percentage of signal compared to blood in the heart) [2] [%],Lung (percentage of signal compared to heart blood) [2] [%],Muscle (percentage of signal compared to blood in the heart) [2] [%],Pancreas (percentage of signal compared to blood in the heart) [2] [%],Reproductive (tract; percentage of signal compared to heart blood) [2] [%],Salivary gland (percentage of signal compared to heart blood) [2] [%],Spleen (percentage of signal compared to blood in the heart) [2] [%],Upper GI (percentage of signal compared to blood in the heart) [2] [%],Blood (densitometric signal in the heart blood) [3],Brain (percentage of signal in that tissue compared to the signal detected in the heart blood) [3] [%],penetration of the blood brain barrier in comparison with the negative controls ([3]; reference level for high penetration: at least 10% diffuse signal in brain versus blood)
GSGVPINVKCRGSRDCLDPCKKAGMRFGKCINSKCHCTP [SEQ ID NO: 34],"specific structures in the brain, such as ventricles and CSF",11.69,35.52,82.37,20.73,118.19,34.13,30.35,229.69,57.57,54.28,216.32,6552245640,9.30,highly penetrate the blood brain barrier
Inulin [reference compound],–,5.98,18.65,126.76,10.92,242.98,19.80,–,129.37,27.58,–,382.27,900918901.9,3.00,–
